Reference: patent US6492131B1, “Class I-type lysyl-TRNA synthetase” (Yale University, priority 1997, dated 2002)

Substrate: NCCCC[C@H](N)C(=O)O
Assay: Kinetic characterization of LysRS: aminoacylation of M. maripaludis total tRNA with lysine
Format: biochemical, Methanococcus maripaludis
Conditions: other: purified native LysRS 5 nM, 37° C., pH 7.2
From the text: To investigate the formation of Lys-tRNA in cell-free extracts prepared from M. maripaludis, (^14C) lysine and homologous total TRNA were used as substrates (6). […] This was confirmed by the observation that (^14C)Lys-tRNA synthesis was inhibited by only one of the 20 canonical amino acids, lysine (FIG. 1). This is consistent with the presence of LysRS, since Lys-tRNA synthesis via a mischarged tRNA would result in a non-labeled amino acid other than lysine being able to inhibit lysylation of tRNA. On the basis of these observations LysRS from M. maripaludis was purified. By standard chromatographic procedures (8), a single 62-kD protein was isolated, which was purified to homogeneity as judged by both silver staining after denaturing polyacrylamide gel electrophoresis (SDS-PAGE) and the appearance of a single symmetrical peak during size exclusion chromatography. […] The enzyme could acylate unfractionated tRNA with lysine to the same degree as the M. maripaludis crude extract (FIG. 1), confirming that the purified protein is LysRS. […] These modified nucleotides have previously been detected at position 34 in all known tRNA^Glu and tRNA^Lys isoacceptors (13).
6. […]
9. […] Sampling and quantification were as described (K. -W. Hong et al., EMBO J. 15, 1983 (1996)).

B1: M. maripaludis LysRS (Methanococcus maripaludis) (protein)
chain: MHWADATSEKIMKKRNAEEYVVSSGITPSGHIHIGNARETLTADAVYKGMLKKGAEAKLIFIADDYDPLRKLYPFLPKEFEKYIGMPLSEIPCPQGCCKSYADHFLMPFLNSLEDLGVEITTHRANECYKAGMYNEAIITALENRLKIKELLDSYRKEPLADNWYPLNVVCEKCGKMHETKVTSYNSEDKTITYVCKCGFENTVQPFNGIGKLPWRVDWPARWNIFGVTAEPMGKDHAASGGSYDTGIKIARQIFNYQAPEKMVYEWIQLKIGDKAMPMSSSSGVVFAVKDWTEICHPEVLRFLILKGKPTKHIDFDLKAISNLVDDYDELERKYFELIEKQKTEELNDNENEKISLYELVTPKIPERLPLQVAYRFCSIIAQIALDKETQKIDMERVFDILGRNGYNPAEFSEYDKSRLEKRLYMSKKWASDYGENLEINDFEQAKEQYETLSEEQKAWLKAFSKEVENIEIDANTIHELMYETATKLNLAPKEAFVASYKILLGKNYGPKLGSFLASLKKEFVIGRFNLTE
B1 was tested, and the Km was 2.2 µM and the kcat was 1.6 s⁻¹.
